Measurements reported in IntAct's records for PubMed 10704439.

B1: Spindle assembly checkpoint component MAD3 (Saccharomyces cerevisiae), P47074 (parent)
chain: MKAYAKKRISYMPSSPSQNVINFEEIETQKENILPLKEGRSAAALSKAIHQPLVEINQVKSSFEQRLIDELPALSDPITLYLEYIKWLNNAYPQGGNSKQSGMLTLLERCLSHLKDLERYRNDVRFLKIWFWYIELFTRNSFMESRDIFMYMLRNGIGSELASFYEEFTNLLIQKEKFQYAVKILQLGIKNKARPNKVLEDRLNHLLRELGENNIQLGNEISMDSLESTVLGKTRSEFVNRLELANQNGTSSDVNLTKNNVFVDGEESDVELFETPNRGVYRDGWENFDLKAERNKENNLRISLLEANTNLGELKQHEMLSQKKRPYDEKLPIFRDSIGRSDPVYQMINTKDQKPEKIDCNFKLIYCEDEESKGGRLEFSLEEVLAISRNVYKRVRTNRKHPREANLGQEESANQKEAEAQSKRPKISRKALVSKSLTPSNQGRMFSGEEYINCPMTPKGRSTETSDIISAVKPRQLTPILEMRESNSFSQSKNSEIISDDDKSSSSFISYPPQR
partner: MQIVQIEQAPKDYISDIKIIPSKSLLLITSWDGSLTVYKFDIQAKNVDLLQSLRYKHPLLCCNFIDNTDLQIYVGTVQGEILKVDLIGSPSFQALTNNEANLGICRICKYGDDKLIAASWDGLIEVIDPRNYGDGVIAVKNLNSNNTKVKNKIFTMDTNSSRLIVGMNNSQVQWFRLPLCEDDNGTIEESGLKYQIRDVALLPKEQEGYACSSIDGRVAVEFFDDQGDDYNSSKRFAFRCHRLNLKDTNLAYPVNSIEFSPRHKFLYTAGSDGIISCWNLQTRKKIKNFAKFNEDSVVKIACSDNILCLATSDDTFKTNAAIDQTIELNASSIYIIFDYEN

Variants of: B1
Details: with bub3_yeast BUB3, P26449

Row | Variant | effect of a mutation on the interaction
1 | MKAYAKKRISYMPSSPSQNVINFEEIETQKENILPLKEGRSAAALSKAIHQPLVEINQVKSSFEQRLIDELPALSDPITLYLEYIKWLNNAYPQGGNSKQSGMLTLLERCLSHLKDLERYRNDVRFLKIWFWYIELFTRNSFMESRDIFMYMLRNGIGSELASFYEEFTNLLIQKEKFQYAVKILQLGIKNKARPNKVLEDRLNHLLRELGENNIQLGNEISMDSLESTVLGKTRSEFVNRLELANQNGTSSDVNLTKNNVFVDGEESDVELFETPNRGVYRDGWENFDLKAERNKENNLRISLLEANTNLGELKQHEMLSQKKRPYDEKLPIFRDSIGRSDPVYQMINTKDQKPEKIDCNFKLIYCEDEESKGGRLEFSLKEVLAISRNVYKRVRTNRKHPREANLGQEESANQKEAEAQSKRPKISRKALVSKSLTPSNQGRMFSGEEYINCPMTPKGRSTETSDIISAVKPRQLTPILEMRESNSFSQSKNSEIISDDDKSSSSFISYPPQR [E382K] | decreasing interaction
